Source: the nanobody polyreactivity screen of Harvey et al. (2022)

Assay: yeast display, Sf9 membrane polyspecificity reagent, FACS + sequencing; frameworks hold sequencing errors
Procedure, shortened: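 Polyreactivity labels are assigned by the sorting gate from which each nanobody was recovered. The gates were low and high (top ~1%), set on anti-HA fluorescence for expression and streptavidin fluorescence for reagent binding. Before sorting, galactose-induced (36–48 hours) yeast display cells were stained for 1 hour at 4 °C with 10% biotinylated, detergent-solubilized Sf9 membrane reagent.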

For “QVQLVESGVGLVQAGGSLRLSCASSGYTFFYYSMGWYRQAPGKEREFVAAISTGTGSTYYADSVKGRFTISRDNAKNTVYLQMNSLKPEDTAVYYCAADGTLYYFGLEYDYWGQGTQVTVSS”, which “polyreactivity (PSR sort gate)” value is on record?
The value was “low polyreactivity”.

With “QVQLVESGGGLVQAGGSLRLSCAASGRISQGYAMGWYRQAPGKERELVAVISRSGGSTYYADSVKGRFTISRDNAKNTVYLQMNSVKPEDTAVYYCASRYYWRGYYWGQGTQVTVSS” as the sequence, how does the “polyreactivity (PSR sort gate)” value read?
Its value is “high polyreactivity”.

For “QVQLEESVGGLVQAGGSLRLSCAASGLTFRAYAMGWYRQAPGKERELVAAISSGGSTSYADSVKGRFTISRDNANITVYLQMNRLKPEDSAVYYCAADRARRGIRDYYWGQGTQVTVSS”, which “polyreactivity (PSR sort gate)” value is on record?
Its value is “high polyreactivity”.

Which “polyreactivity (PSR sort gate)” value does the source give for “QVQLVESAGGLVQAGGSLRLSCAASGSTFYAYVMGWYRPAPGKARELVAAISKGGGSTYYADSVKGRFTISRDNAKNTVYLQMNSLKPEDTAVYYCAAYASYSNYRKYNYWGQGTQVTVSS” here?
The value was “high polyreactivity”.

For “QVQIVESGGGLVQAGGSLRLSCAASGRTLKFNTMGWYRQAPGKERELVAAISGSGGSTYYADSVKGRFTISRDNAKNTVYLQMNSLKPEDTAVYYCAKYGVLRGYGYDYWGQGTQVTVSS”, which “polyreactivity (PSR sort gate)” value is on record?
The value was “high polyreactivity”.

With “QLLLQESVGGLVQAGGSLRLSCAASGSIFLFYTMGAYRQAPVKELEFVAGITLGTTTYNADSVKGRFTISRDNVKNTVYLQMNSLKPEDTAVYYCAVAVGHYTEFWYWGQGTQVTMSS” as the sequence, how does the “polyreactivity (PSR sort gate)” value read?
The value was “high polyreactivity”.

With “QVQLVESGGGLVQAGGSLRLSCAASGFTFYLNAMGLYRQAPGKERELVAGISWRGGRTYYADSVKGRFTISRDNAKNSVYLQMNSLKAEDTAVYYCAAVTYSFQKTDYYWGQGTQVTVSS” as the sequence, how does the “polyreactivity (PSR sort gate)” value read?
The value was “high polyreactivity”.

Which “polyreactivity (PSR sort gate)” value does the source give for “QVQLVESGGGLVQAGGSLRLSCAASGLIIYRYGMGWYRQAPGKERELVAAISYSGSSTYYADSVKGRFTISRDNAKNTVYLQMISLKPEDTAVYYCAAQSTRPYPGRYYYWGQGTQVTVSS” here?
Its value is “high polyreactivity”.

Which “polyreactivity (PSR sort gate)” value does the source give for “QVQLVESGGGLVQAGGSLRLSCAASGRTINRYAMGWYRQAPGKESELVASINKSGTSTYYADAVKGRFTISRDNAKNTVYLQMNCLKPEDTGVYYWKTRYFWCSTYDYWGQGTEVTVSS” here?
The value was “high polyreactivity”.

With “QDQLVESGGGLVQAGGSLRLSCAASGSIIPFYAMGWYRQAPGKERELVAAITYSGGSTFYADSVKGRFTISRDNAKNTVYLQMNSLKPEDTAVYYCNAVWRFGSSKYYYWGQGTQVTVSS” as the sequence, how does the “polyreactivity (PSR sort gate)” value read?
Its value is “high polyreactivity”.

With “QVQLVESAVGLVQAGGSLRLSCAASGGIIAYNAMGWYRQAPGKERELVAAISSSGGRTYYADSVKGRFTISRDNAKNTVYLQMNSLKPEDTAVYYCAADITFRYYYWGQGTQVTVSS” as the sequence, how does the “polyreactivity (PSR sort gate)” value read?
The value was “high polyreactivity”.

With “QVQLVESGGGLVQAGGSLRLSCAASGITFQANAMGWYRQAPGKERELVAAISSSDGSTYYADSVKGRFTISRDNAKNTVYLQMNSLKPEDTAVYYCNVDYAQRVFLYDYWGQGTQVTVSS” as the sequence, how does the “polyreactivity (PSR sort gate)” value read?
The value was “low polyreactivity”.

Which “polyreactivity (PSR sort gate)” value does the source give for “QVQLVESGGGLVQAGGSLRLSCAASGSTFATYTMGWYRQAPGKERELVAAISVSGSRTYYADSVKGRFTISRDNAKNTVYLQMNSLKPEDTAVYYCNADPPVKLYLYDYWGQGTQVTVSS” here?
The value was “high polyreactivity”.

Which “polyreactivity (PSR sort gate)” value does the source give for “QVQLVESGGGLVQAGGSLRLSCAASGSIFSSNAMGWYRQAPGKERELVAAITSGGSTTYADSVKGRFTISRDNAKNTVYLQMNSLKPEDTAVYYCAADPVYRYYHGWTYLDYDYWGQGTQVTVSS” here?
The value was “low polyreactivity”.

With “QVQLVESGGGLVQAGGSLRLSCAASGRTLYIYAMGWYRQAPGKERELVAAITRRGDSTYYADSVKGRFTISRDNAKNTVYLQMNSLKPVDTAVYYCAADFPDTSSQYDPAYEYWGQGTQVTVSS” as the sequence, how does the “polyreactivity (PSR sort gate)” value read?
The value was “low polyreactivity”.

For “QVQHVESGGGLVQAGGSLRLSCAASGSIFGKYAMGWYRQAPGKERELVARISRSSGSTYYADSVKGRFTISRDNAKNTVYLQMNSLKPEDTAVYYCAARAYLNQARPKYGYSYDYWGQGTQVTVSS”, which “polyreactivity (PSR sort gate)” value is on record?
Its value is “high polyreactivity”.

Which “polyreactivity (PSR sort gate)” value does the source give for “QVQLVESGGGLVQAGGSLRLSCAASGSTFGHNAMGWYRQAPGKERELVAAIDSGDGTTYADSVKGRFTISRDNAKNTVYLQMNSLKPEDSAVYYWNVDLTTVGLWYYYRPGYDFWGQGTQVTVSS” here?
Its value is “low polyreactivity”.

With “QVQLQESGGGLVQEGGSLRLSCAASGNISPPADMGWYRPAPGKERELVASIGTGGTTNYADSVKGRFTISRDNAKNTVYLQMNSLKPDDTAVYYCAAVRYEYNPYDYWGQGTQVTVSS” as the sequence, how does the “polyreactivity (PSR sort gate)” value read?
Its value is “low polyreactivity”.

With “QVQLVESRGGLVQAGGSLRLSCAASGITFTIYAMGWYRQAPGKERELVAAITWTSDITHYADSVKGRFTISRDNAKNTVYLQMISLKPEDTAVYYCAATTWDEYDYWGQGTQVTVSS” as the sequence, how does the “polyreactivity (PSR sort gate)” value read?
The value was “high polyreactivity”.

Which “polyreactivity (PSR sort gate)” value does the source give for “QVQLVESGGGLVQAGGSLRLSCAASGFTFTRNVMGWYRQAPGKERELVAAINASGGRTYYADSVKGRFTISRDNAKNTVYLQMNSLKPEDTAVYYCAARDTQLGGSRGGSWGQGTQVTVSS” here?
The value was “high polyreactivity”.

For “QFQLVESGGGLVQAGGSLRLSCAASGFTIGPYTMAWYRQAPGKERELVAAISYSGASTYYADSVKGRFTISRDNAKNTVYLQMNSLKPEDTAVYYCNTVYRFTRARYPYDYWGQGTQVTVSS”, which “polyreactivity (PSR sort gate)” value is on record?
The value was “high polyreactivity”.

For “QDQLVESGGCLVQAGGSLRLSCAASGGTFRVYAMGWYRQAPGKERELVAAITGRGGSTYYADSVKGRFTISRDNAKNTVYLQMNSLKPDDTAVDYCNKEPELVEYDYWGQGTQVTVSS”, which “polyreactivity (PSR sort gate)” value is on record?
Its value is “low polyreactivity”.

With “QVQHVESGGGLVQAGGSLRLSCAASGRTFDWYAMGRYRQAPGKEMELVAAISSGGSTYYADSVKGRFTISRDNAKNTVYLQMNSLKPEDTAVYYCAAEWHYIYAYDYWGQGTQVTVSS” as the sequence, how does the “polyreactivity (PSR sort gate)” value read?
Its value is “low polyreactivity”.

For “QVQLVESRGGLVQAGGSLRLSCAASRRIFVRNAIGWYIQEPGKERELVAAISSSGGPTYYADSVKGRFTISRDNAKNTVYLQMNSLKPEDTAVYYCAASSSNKEYDYWGQGTQVTVSS”, which “polyreactivity (PSR sort gate)” value is on record?
Its value is “high polyreactivity”.

For “QVQLVESGGGLVQAGGSLRLSCAASGRIFKYYAMGWYRQSPGKERELVAAITSSGGSTYYADSVKGRFTISRDNAKNTVYLQMNRLKPEDTAVYYCAARGPKQLYPGYIYGYWGQGTQVTVSS”, which “polyreactivity (PSR sort gate)” value is on record?
Its value is “low polyreactivity”.

Which “polyreactivity (PSR sort gate)” value does the source give for “QVQLEESGGCLDQAAGSLRLTCADSGFIFLPNAMGWYRQAPGKERELVADITYDGGTTYYADSVKGRFTISRDNAKNTVYLQKNSLKPEDTAVYYCNAETYEFHRSRGDYDYWGQGTQVTVSS” here?
The value was “low polyreactivity”.

With “QVQLVESGGGLVQARGSLRLSCAASGSTFSYYTMGWYREAPGKERELVAAITRRGDSTYADSVKGRFTISRDNAMNTVYLQLNSLKPEDTAVYYFAADDYVGVSGMDYWGQGTQVTVSS” as the sequence, how does the “polyreactivity (PSR sort gate)” value read?
The value was “low polyreactivity”.

With “QVQLVESGGGLVQAGGSLRLSCAASGNIFSAYAMGWYRQAPGTERELVAAISRSVTITYYADSVKGRFTISRDNAKKTDYLQMNSLKPEDTAVYYCAARDYHYPKFGYCGQGTQVTVSS” as the sequence, how does the “polyreactivity (PSR sort gate)” value read?
Its value is “high polyreactivity”.

For “QVQLVESGGGLVQAGGSLRLSCAASGSTFPLYAMGWYRQAPGKERDLVAAITSGGGNTYYADSVKGRFTISRDNAKITVYLQMNSLKPEDTAVYSCAAVGGYKSYYSYEYDYWGQGTQVTVSS”, which “polyreactivity (PSR sort gate)” value is on record?
Its value is “low polyreactivity”.

With “QVQLVESGGGLVQAGGSLRLSCAASGITLYRYTMGWDRQAPGTEREFVAAISRSGGSTYYADSVKGRFTISRDNEKNTVYVQMNSLKPEDTAVYYCAARWYEKTTRPYGSWGQGTQVTVSS” as the sequence, how does the “polyreactivity (PSR sort gate)” value read?
The value was “high polyreactivity”.

For “QVQLVESGGGLVQAGGSLRLSCAASGSTFKFYGVGWYRQAPGKERQLVASITSSSGPTYYADSVKGRFTISRDNAKYTVYLQLNSLKPEDPAVYDCNKAWRRYWLRGDYWGQGKQVTVSS”, which “polyreactivity (PSR sort gate)” value is on record?
The value was “low polyreactivity”.

Which “polyreactivity (PSR sort gate)” value does the source give for “QVQLVESGGGLVQAGGSLRLSCAASGNTFYGYALGWYRPAPGKERELVASITLSGDSTHYADSVKGRFTISRDNAKNTVYVQMNSLKPEDTAVYYCAGVYTYPLGYYHYTYDYWGQGTQVTVSS” here?
The value was “low polyreactivity”.

Which “polyreactivity (PSR sort gate)” value does the source give for “QVQLVESGGGLVQAGGSLRLSCAASGSIFDDYAMGWYRQAPGKESELVAAITSGASTNYADSVKGRFTISRDNAKNTFSLQMNSLKPEDTAVYYCAADHDYFVNTDKFDDYWGQGTQVTVSS” here?
Its value is “low polyreactivity”.

For “QVQLVESGGGLVQAGGSLRLSCAASGRTFYRNAMGWYIQAPGKERELVAAITWSGVSTYYADSVKGRFTISRDNAKNTVYLQMNSLKPEDTAVYYCARGRVLRNGHYFQLRNYDYWGQGTQVTVSS”, which “polyreactivity (PSR sort gate)” value is on record?
The value was “high polyreactivity”.

With “QVQLVETGGGLVQAGGSLRLSCAASGRIFGRYAMGWSRQAPGKERELVASISRGGSTNYADSVKGRFTISRDNAKNTVYLQMNSLKPEDTAVYYCAKSGGVGGADRVGSWGQGTQVTVSS” as the sequence, how does the “polyreactivity (PSR sort gate)” value read?
Its value is “low polyreactivity”.

With “QVQLVESGGGLVQAGGSHRLSCAASGSTFAYYAMGWYRQAPGKERELVATISERGGTTYYADSVKGRFTLSRDNAKNTVYFQMNILKPEVTAVYYCAADHSGYWTYYYDYYYWGQGTQVNVSS” as the sequence, how does the “polyreactivity (PSR sort gate)” value read?
The value was “low polyreactivity”.

For “QVQLVESGGGLVQAGGSLRLSCAASGGTFGSYAMGWYRQAPGKERELVAAIRSGDRTYYADSVKGRFTISRDNAKNTVYLQMNSLKPEDTAVYYCNADGYARFRTYYSRDTREYDYWGQGTQVTVSS”, which “polyreactivity (PSR sort gate)” value is on record?
Its value is “low polyreactivity”.

Which “polyreactivity (PSR sort gate)” value does the source give for “QVHLVESGGGLVQAGGSLRFSCAASGSTFDDYAMGWYRQAPGKERELVAAISRSDGSTSYADSVKGRFTISRDNAKNTVYLQMNSLKPEDTAVYYCAADPVFKDDLWPVRVRVDYWGQGTQVTVSS” here?
Its value is “low polyreactivity”.

Which “polyreactivity (PSR sort gate)” value does the source give for “QVQLVESGGGLVQAGGSLRLSCAASGRIFYTYAMGWYRQAPGKERELVAAISSRTGSTYYADSVKGRFTISRDNAKNTVYLQMNSLKPEDTAVYYCNAYRLRYGYDYWGQGTQVTVSS” here?
The value was “high polyreactivity”.

Which “polyreactivity (PSR sort gate)” value does the source give for “QVQLVESGGGLVQAGGSLRLSCAASGSTFIYYAMGWYRQAPGKERELVAAISGSGASTYYADSVKGRFTISRDNAKNTVYLQMNSLKPEDTAVYYCHFYRWRGYDYWGQGTQVTVSS” here?
The value was “high polyreactivity”.

With “QVQLVESGGGLVQAGGSLRLSCAASGRTFLENAMGWYRQAPGKERELVAAISWRGGNTHYADSVKGRFTISRDNAKNTVYLQMNSLKPEDTAVYYCNAVNYRNKYDYWGQGTQVTVSS” as the sequence, how does the “polyreactivity (PSR sort gate)” value read?
The value was “high polyreactivity”.

With “QVQLVESGGGLVQAGGSLRLSCASSGFIFRYYAMGWYRQAPGKERELVAAISWRGDSTSYADSVKGRFTISRDNAKYTVYLQMNSLKPEDTAVYYCAAGRYLAYLYWGRYEYYYWGQGTQVTVSS” as the sequence, how does the “polyreactivity (PSR sort gate)” value read?
Its value is “low polyreactivity”.

Which “polyreactivity (PSR sort gate)” value does the source give for “QVQLVESCGGLVHAGCSLRLSCAASGSTFTFYAMGWYRQAPGKERVLVATISWSTGTTYYADSVKGRFTISRDSAKNTVYLEMNSMKPEDTAVYYCADAWSYRFDYWGQGTQVTVSS” here?
Its value is “low polyreactivity”.
